B1: antibody 1308 (antibody, human IgG1, kappa, V domains shown)
VH: EVQLQQSGAELVRPGSSVKISCKASGYAFSSYWMNWVRQRPGQGLEWIGQIYPGDGDTNYNGKFKGRATLTANKSSSTAYMQLSSLTSEDSAVYFCARRASSLYDVYPYYFDYWGQGTTLTVSS
VL: DIQMTQTTSSLSASLGDRVTISCRASQDISNYLNWYQQKPDGTVKVLIYYTSRLHSGVPSRFSGSGSGTDYSLTISNLEQEDIATYFCQQGNTLPYTFGGGTKLEIKR
notes: Chimeric IgG1 kappa
B2: antibody 1257 (antibody, human IgG1, kappa, V domains shown)
VH: EVQLQQSGPELVKPGASVKIPCKTSGYTFTDYNMAWVKQSHGKSLEWIGDIIPNNGGAIYNQKFKGKATLTVDKSSSTASMELRSLTSEDTAVYFCARKNIYYRYDGAGALDYWGQGTSVTVSS
VL: QIVLTQSPAIMSASPGEKVTMTCSASSSVSYIYWYQQKPGSSPRLLIYDASNLASGVPVRFSGSGSGTSYSLTISRMEAEDAATYYCQQWSSYPITFGSGTKLEIKR
notes: Chimeric IgG1 kappa
B3: antibody 1284 (antibody, human IgG1, kappa, V domains shown)
VH: QVQLQQPGAELVKPGASVKLSCKASGYTFTSDWMHWMKQRPGQGLEWIGEINPSNGRSSYNEKFKSKATLTVDKSSSTAYMQLSSLTSEDSAVYYCARIGGIYVETYWGQGTLVTVSS
VL: DIVLTQSPASLAVSLGQRATISCRASQSVSTSTYSYMHWYQQKSGQPPKLLIKYASNLESGVPARFSGSGSGTDFTLNIHPVEEEDTATYYCQHSWEIPWTFGGGTKLEIKR
notes: Chimeric IgG1 kappa
B4: antibody 1260 (antibody, human IgG1, kappa, V domains shown)
VH: QVQLKESGPGLVAPSQSLSITCTVSGFSLTTYGVHWVRQPPGKGLEWLGVIWAGGSTNYNSALMSRLSIKKDNSKSQVFLKMNSLQTDDTAMYYCARAYGYNFDYWGQGTTLTVSS
VL: DIQMTQTTSSLSASLGDRVTISCSASQGITNYLNWYQQKPDGTVKLLIYYSSSLHSGVPSRFSGSGSGTDYSLTISNLEPEDIATYYCQQYSEIPYTFGGGTKLELKR
notes: Chimeric IgG1 kappa
B5: antibody 1261 (antibody, human IgG1, kappa, V domains shown)
VH: EVQLVESGGGLVKPGGSLKLSCAVSGFTFSSYVMSWVRQTPEKRLEWVATITSGGRNIYYLDSVKGRFTISRDNAKNTLYLQMSSLRSEDTAMYYCARHEDYRYDGYYAMDYWGQGTSVTVSS
VL: QIVLTQSPAIMSASPGEKVTITCSASSSVSYMHWFQQKPGTSPKLWIYSTSNLASGVPARFSGSGSGTSYSLTISRMEAEDAATYYCQQRSSYPYTFGGGTKLELKR
notes: Chimeric IgG1 kappa

Biological target: T1, wild type full length EGFR purified from A431 cells (human, UniProt P00533 25-1210)
T1 construct: mature; Bought; coated on ELISA wells; also called full length EGFR receptor antigen; Sigma E3641
Assay: competition ELISA, competitor Ab-11
Design: concentration or dose not given beside the values
Procedure: (§1) The ELISA was adapted from the descriptions published in Ditzel et al, 1995, The Journal of Immunology, Vol 154, Issue 2 893-906.
(§2) An epitope blocking ELISA was performed by diluting full length EGFR receptor antigen to 0.5 μg/ml in PBS; and coating 50 μl/ELISA well overnight at 4° C. […] Finally wells were washed four times with PBS-T and plates were developed by adding 50 μl/well TMB and read at 620 nm every 5-15-30 min. The degree of inhibition was calculated from the formula: % inhibition=(1−(OD competition/OD no competition (PBS)))×100.

Binder	% inhibition
B1	91%
B2	92%
B3	52%
B4	92%
B5	88%

Biological target: T2, EGFRvIII (deletion mutant EGFR) (human, UniProt P00533 25-645, limits assumed)
T2 construct: also called deltaEGFR; rhEGFRvIII
Assay: EGFRvIII ELISA (Example 1)

Binder	binding result
B1	no binding
B2	no binding
B3	no binding
B4	no binding
B5	no binding

Biological target: T3, recombinant human EGFR extracellular domain with 6xHis (human, UniProt P00533 25-645)
T3 construct: In-house produced; also called 6xHis EGFR ECD; soluble human EGFR ECD; not shown: 6xHis tag
Assay: SPR (BIAcore 2000); IgG captured on anti-human Fc, soluble monovalent EGFR ECD injected
Procedure: Kinetic analysis of the full length IgG antibodies of the invention was performed on a BIAcore 2000, employing an assay as described in (Canziani, Klakamp, et al. 2004, Anal. Biochem, 325:301-307) allowing measurement of monovalent affinities of whole IgG molecules against soluble antigen. […] The chip surface was regenerated in between cycles by stripping the captured antibody/antigen complexes with a 10 second injection of 100 mM H₃PO₄. […] The association rate constant (ka) and dissociation constant (kd) were evaluated globally from the generated sensograms with the BIA evaluation software 4.1 provided by the manufacturer.

Binder	Kd	koff	kon	t1/2
B3	4.6 nM	0.00015 s⁻¹	32000 M⁻¹ s⁻¹	1.3 h
B4	4.2 nM	0.00016 s⁻¹	37000 M⁻¹ s⁻¹	1.23 h
B5	18.6 nM	0.0032 s⁻¹	170000 M⁻¹ s⁻¹	0.06 h

Biological target: T1, wild type full length EGFR purified …
Assay: competition ELISA, competitor Ab-2
Design: concentration or dose not given beside the values
Procedure: as §1, §2

Binder	% inhibition
B1	11%
B2	37%
B3	26%
B4	8%
B5	6%

Biological target: T1, wild type full length EGFR purified …
Assay: competition ELISA, competitor Ab-10
Design: concentration or dose not given beside the values
Procedure: as §1, §2

Binder	% inhibition
B1	12%
B2	33%
B3	30%
B4	24%
B5	13%

Biological target: T1, wild type full length EGFR purified …
Assay: competition ELISA, competitor Ab-3
Design: concentration or dose not given beside the values
Procedure: as §1, §2

Binder	% inhibition
B1	19%
B2	77%
B3	9%
B4	12%
B5	30%

Biological target: T3, recombinant human EGFR extracellular …
Assay: SPR competition, competitor 1308
Procedure: (§3) SPR analysis was performed on a Biacore 3000 machine containing four flow cells. A CM5 Biacore chip was conjugated with 10,000 Resonance units (Ru) polyclonal anti-His antibody to flow cells 1-4 according to the manufacturer's instructions. […] Immediately after antigen injection the maximal binding of the Anti-EGFR mAb without competition was established in each flow cell during a reference run. Briefly 5 μl antibody at a concentration of 40 μg/ml was injected over all flow cells with captured EGFR followed by stripping of the antibody/antigen complex with a low pH acid wash (10 sec. contact time with 10 mM Glycine-HCl, pH2). After the determination of Anti-EGFR antibody maximal binding to each flow cell, a competition run was performed during the same Biacore cycle. Flow cells were first saturated with EGFR ECD antigen followed by injection of different reference antibodies or Anti-EGFR antibodies into separate flow cells using the same antigen saturating conditions as outlined above. This step was immediately followed by a second injection of Anti-EGFR antibody over the flow cell saturated with EGFR antigen and competition antibody to minimize the dissociation of either antigen or blocking antibody. Then the antibody/antigen complexes were stripped off with a low pH acid wash (10 sec. contact time with 10 mM Glycine-HCl, pH 2) and the whole cycle beginning with the reference run was repeated with a new Anti-EGFR antibody. The degree of inhibition of tested Anti-EGFR antibodies were determined by comparing the Ru max value of the individual Anti-EGFR antibody before and after competition by introduction of report points recorded two seconds before and after injection of each sample.

Binder	% inhibition
B1	75%
B2	27%
B3	68%
B5	-10%

Biological target: T1, wild type full length EGFR purified …
Assay: competition ELISA, competitor Ab-5
Design: concentration or dose not given beside the values
Procedure: as §1, §2

Binder	% inhibition
B1	0%
B2	25%
B3	31%
B4	17%
B5	6%

Biological target: T3, recombinant human EGFR extracellular …
Assay: SPR competition, competitor 1449
Procedure: as §3

Binder	% inhibition
B2	15%
B3	-1%
B4	29%
B5	-20%

Biological target: T1, wild type full length EGFR purified …
Assay: competition ELISA, competitor ICR10
Design: concentration or dose not given beside the values
Procedure: as §1, §2

Binder	% inhibition
B1	71%
B2	78%
B3	88%
B4	90%
B5	57%

Biological target: T3, recombinant human EGFR extracellular …
Assay: SPR competition, competitor 1042
Procedure: as §3

Binder	% inhibition
B2	16%
B3	-1%
B4	31%
B5	-18%

Biological target: T4, Cynomolgus EGFR extracellular domain (Cynomolgus monkey (Macaca fascicularis), UniProt P55245 25-645 (rhesus entry))
T4 construct: Cloned without signal peptide; also called Cynomolgus rEGFR ECD; Cynomolgus EGFR ECD
Assay: ELISA on cynomolgus EGFR ECD (Example 10)
Summary of the method: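 Wells coated overnight at 4 °C with 1 μg/ml EGFR protein, then given serial four-fold antibody dilutions from 1 μg/ml for 1 h at room temperature. Binding detected with streptavidin-HRP and TMB, read at OD 450 nm.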

Binder	binding result
B1	binds
B2	binds
B3	binds
B4	binds
B5	binds

Source: patent US20110135636A1 (SYMPHOGEN A S, published 2011)
